# US6642368B1, “Programmed cell death and caspase-12” (The General Hospital Corporation, priority 1998, dated 2003)
# T1: pro-caspase-12 (caspase-12L, full-length precursor, 419 residues, 48 kDa)
# T1 sequence: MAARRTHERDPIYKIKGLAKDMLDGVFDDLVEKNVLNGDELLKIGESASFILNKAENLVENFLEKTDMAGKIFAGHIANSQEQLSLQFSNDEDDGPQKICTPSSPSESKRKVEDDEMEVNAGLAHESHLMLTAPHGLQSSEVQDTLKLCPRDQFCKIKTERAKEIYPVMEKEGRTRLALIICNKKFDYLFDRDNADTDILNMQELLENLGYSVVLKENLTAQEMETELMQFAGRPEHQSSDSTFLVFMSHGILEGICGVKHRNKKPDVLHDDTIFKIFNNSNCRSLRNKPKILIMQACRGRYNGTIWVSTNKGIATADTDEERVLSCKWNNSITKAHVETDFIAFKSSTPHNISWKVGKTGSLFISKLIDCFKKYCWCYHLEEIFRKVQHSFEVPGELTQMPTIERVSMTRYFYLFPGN
# T2: caspase-12Δ (Gly95-Asn419 of caspase-12L, with an artificial initiation codon), [35S]-labeled
# T2 sequence: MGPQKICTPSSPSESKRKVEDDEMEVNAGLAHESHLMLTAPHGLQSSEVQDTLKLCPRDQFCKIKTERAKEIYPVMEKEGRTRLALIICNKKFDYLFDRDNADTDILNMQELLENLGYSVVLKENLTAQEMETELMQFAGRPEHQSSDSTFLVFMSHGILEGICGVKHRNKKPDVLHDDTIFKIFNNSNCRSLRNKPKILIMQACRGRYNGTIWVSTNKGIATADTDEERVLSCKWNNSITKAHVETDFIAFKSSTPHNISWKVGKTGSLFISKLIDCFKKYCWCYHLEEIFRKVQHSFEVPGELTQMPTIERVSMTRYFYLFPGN
# Key:
# [1] = system: T1, pro-caspase-12 (caspase-12L, full-length precursor, 419 residues, 48 kDa)
# caspase-12Δ2 = biological target: T3, caspase-12Δ2 (Mus musculus, UniProt O08736); experiment: Inhibition of cleavage of pro-caspase-12 by purified caspase-12Δ2; type: biochemical; settings: preincubation 1 mM DTNB 25° C. 60 min or 2 mM iodoacetamide 0° C. 60 min
# T3 construct: made in house; host or cells: E. coli BL21(DE3) pLys
# Method: ICE, casp-2 and casp-3 were cloned into a pET-15b vector (Novagen) and their expression was induced in the presence of 0.2-0.3 mM IPTG (Wang, S., et a., J. Biol. Chem. 271:20580-20587 (1996); Cryns, V. L., et al., J. Biol. Chem. 271:31277-31282 (1996)). Bacterial lysates containing the ICE-like proteases were prepared as described (Wang, S., et al., J. Biol. Chem. 271:20580-20587 (1996); Cryns, V. L., et al., J. Biol. Chem. 271:31277-31282 (1996)). [^35S]-labeled proteins were prepared by in vitro transcription and translation using a TNT coupled reticulocyte lysate system (Promega) and [^35S]methionine (Amersham). Labeled proteins were incubated at 37° C. with purified caspase-12Δ2 or at 30° C. with E. coli lysates containing the caspase family members. The reaction mixture contained 25 mM Hepes (pH 7.5) with 5 mM EDTA, 5 mM dithiothreitol, 10% sucrose, 10 μg/ml leupeptin and 250 μM phenylmethylsulfonyl fluoride. Amount of proteins used for cleavage reaction were: 0.1 μg for partially purified caspase-12Δ2, 25-70 μg for E. coli lysate. […] Cleavage products were analyzed by either 10- or 15% SDS-polyacrylamide gel electrophoresis. […]
# Rat-1/bcl-2 = experiment: Effect of cell death suppressor bcl-2 on caspase-12 killing activity; type: cell-based
# Method: FIGS. 5A-5B. Effect of cell death suppressors on the killing activity of caspase-12. […] Cell death was assayed as described in FIG. 4C. […] The data from transfection of the parental cell line, Rat-1 (FIG. 4C), are included in the figures for comparison. The lacZ construct was also used for transfection as a control.
# To determine if expression of bcl-2 and crmA can inhibit apoptosis induced by casp-12 overexpression, casp-12L-lacZ fusion construct was transfected into stable cell lines of Rat-1 that overexpresses either bcl-2 or crmA (Miura, M., et al., Cell 75:653-660 (1993)). Cell death was assayed as described above (Example 3). […] The magnitude of the bcl-2 suppression against toxicity of casp-12 overexpression was about 10% (60% for Rat-1, 50% for Rat-1/bcl-2) which is much smaller than that observed for ICE and casp-2 (FIG. 5A; Wang, L., et al., Cell 78:739-750 (1994)).
# [2] = system: T2, caspase-12Δ (Gly95-Asn419 of caspase-12L, with an artificial initiation codon), [35S]-labeled
# Rat-1 cells = experiment: Cell death induced by transient overexpression of lacZ fusion constructs, X-gal staining; type: cell-based; settings: lacZ fusion construct, 24 hr after transfection
# Text: FIGS. 4A-4C. Cell death induced by overexpression of caspase-12. […] The round cells expressing the casp-12L-lacZ fusion proteins show condensed and fragmented nuclei. […] The data shown are the percentage of round blue cells among total number of blue cells counted. In each transfection, over 200 blue cells were randomly chosen and counted. The data of Rat-1 cells collected from at least three independent experiments. The constructs used were: casp-12L-lacZ, casp-12S-lacZ, casp-12Δ-lacZ, ICE-lacZ, lacZ. Rat embryonic fibroblast cells (REF) were also transfected with either casp-12L-lacZ or lacZ.
# To examine if expression of caspase-12 induces apoptosis, a transient expression system was used to overexpress caspase-12 in mammalian cells. […] Transfected cells are easily detected by staining with X-gal because of the β-galactosidase activity of lacZ. Expression constructs of casp-12L and casp-12S fused with lacZ gene in pcDNA3 vector, which contains the cytomegalovirus (CMV) promoter, were generated. These expression constructs were introduced into Rat-1 cells by transfection, and the expression of the genes were examined 24 hr after transfection using X-gal reaction.
# Rat-1, rat embryonic fibroblast cells, NG108-15, HeLa and COS-1 were maintained in culture at 37° C. with 5% CO2 in Dulbecco's modified Eagle's medium containing 10% (v/v) fetal bovine serum (BioWhittaker) and 50 units/ml penicillin and 50 μg/ml streptomycin (Sigma). The day before transfection, cells were seeded at a density of 1.3×10^4 cells/cm^2. Expression constructs were transferred to cells with either calcium phosphate or lipofectamine (GIBCO BRL) as previously described (Miura, M., et al., Cell 75:653-660 (1993); Kumar, S., et al., Genes and Development 8:1613-1626 (1994); Wang, L., et al., Cell 78:739-750 (1994)). The expression of chimeric genes in cells was detected by staining of cells with 5-bromo-4-chloro-3-indolyl β-D-galactoside (X-gal) as previously described (Miura, M., et al., Cell 75:653-660 (1993); Kumar, S., et al., Genes and Development 8:1613-1626 (1994); Wang, L., et al., Cell 78:739-750 (1994)). Immunostaining of transfected cells was done as previously described using mouse monoclonal anti-lacZ antibody (Miura, M., et al., Cell 75:653-660 (1993); Kumar, S., et al., Genes and Development 8:1613-1626 (1994); Wang, L., et al., Cell 78:739-750 (1994)).
molecule,measurement,setting,value
"caspase-2 (E. coli lysate, expressed from pET-15b)",in vitro cleavage of [35S]-labeled caspase-12 precursor by E. coli lysate containing the caspase,[1],"Cleavage of pro-caspase-12 by caspase-2 generated a fragment of about 40 kDa at a lower cleavage efficiency, compared to caspase-3 digestion"
"O=C(O)c1cc(SSc2ccc([N+](=O)[O-])c(C(=O)O)c2)ccc1[N+](=O)[O-] [5,5′-dithio-bis(2-nitrobenzoic acid)]",inhibition of proteolytic activity of caspase-12Δ2 by pretreatment with thiol reagent,caspase-12Δ2,completely inhibited
NC(=O)CI [iodoacetamide],inhibition of proteolytic activity of caspase-12Δ2 by pretreatment with thiol reagent,caspase-12Δ2,completely inhibited
"Bcl-2: mammalian cell death suppressor, homolog of C. elegans ced-9",magnitude of bcl-2 suppression against toxicity of casp-12 overexpression,Rat-1/bcl-2; 60% for Rat-1 versus 50% for Rat-1/bcl-2,about 10%
same,inhibition of cell death induced by overexpression of casp-12,"Rat-1/bcl-2; Rat-1/bcl-2, FIG. 5A",only very weakly inhibited
"caspase-3 (E. coli lysate, expressed from pET-15b)",in vitro cleavage of the [35S]-labeled truncated form,[2],Caspase-3 treatment of the truncated form did not produce any smaller fragments
same,in vitro cleavage of [35S]-labeled caspase-12 precursor by E. coli lysate containing the caspase,[1],"caspase-2 and caspase-3 can cleave pro-caspase-12 protein, generating smaller fragments of about 40 kDa"
"caspase-12S: alternatively spliced short form of caspase-12, 349 amino acid residues (SEQ ID NO:14) (protein, lacZ fusion) MAARRTHERDPIYKIKEFSNDEDDGPQKICTPSSPSESKRKVEDDEMEVNAGLAHESHLMLTAPHGLQSSEVQDTLKLCPRDQFCKIKTERAKEIYPVMEKEGRTRLALIICNKKFDYLFDRDNADTDILNMQELLENLGYSVVLKENLTAQEMETELMQFAGRPEHQSSDSTFLVFMSHGILEGICGVKHRNKKPDVLHDDTIFKIFNNSNCRSLRNKPKILIMQACRGRYNGTIWVSTNKGIATADTDEERVLSCKWNNSITKAHVETDFIAFKSSTPHNISWKVGKTGSLFISKLIDCFKKYCWCYHLEEIFRKVQHSFEVPGELTQMPTIERVSMTRYFYLFPGN",percentage of cell death (round blue cells among total blue cells),Rat-1 cells,about 60%
"caspase-12Δ: truncated caspase-12, amino acid residues 95-419 of SEQ ID NO:2 (protein, lacZ fusion) GPQKICTPSSPSESKRKVEDDEMEVNAGLAHESHLMLTAPHGLQSSEVQDTLKLCPRDQFCKIKTERAKEIYPVMEKEGRTRLALIICNKKFDYLFDRDNADTDILNMQELLENLGYSVVLKENLTAQEMETELMQFAGRPEHQSSDSTFLVFMSHGILEGICGVKHRNKKPDVLHDDTIFKIFNNSNCRSLRNKPKILIMQACRGRYNGTIWVSTNKGIATADTDEERVLSCKWNNSITKAHVETDFIAFKSSTPHNISWKVGKTGSLFISKLIDCFKKYCWCYHLEEIFRKVQHSFEVPGELTQMPTIERVSMTRYFYLFPGN",percentage of cell death (round blue cells among total blue cells),Rat-1 cells,60%
